Source: patent US20220008545A1 (Bicycle, published 2022)
Starred links: 1 amine or outer side, 2 acyl side, 3 side chain; linkers in the order of their positions; H or OH if unused. Positions of bridges follow the written chain, without caps; N, C: chain ends. No end group written: not given here. TBMB = c1c(C[*:1])cc(C[*:3])cc1C[*:2]

T1: fibroblast activation protein α (FAPα) (UniProt Q12884 26-760, limits assumed)
T1 sequence (looked up): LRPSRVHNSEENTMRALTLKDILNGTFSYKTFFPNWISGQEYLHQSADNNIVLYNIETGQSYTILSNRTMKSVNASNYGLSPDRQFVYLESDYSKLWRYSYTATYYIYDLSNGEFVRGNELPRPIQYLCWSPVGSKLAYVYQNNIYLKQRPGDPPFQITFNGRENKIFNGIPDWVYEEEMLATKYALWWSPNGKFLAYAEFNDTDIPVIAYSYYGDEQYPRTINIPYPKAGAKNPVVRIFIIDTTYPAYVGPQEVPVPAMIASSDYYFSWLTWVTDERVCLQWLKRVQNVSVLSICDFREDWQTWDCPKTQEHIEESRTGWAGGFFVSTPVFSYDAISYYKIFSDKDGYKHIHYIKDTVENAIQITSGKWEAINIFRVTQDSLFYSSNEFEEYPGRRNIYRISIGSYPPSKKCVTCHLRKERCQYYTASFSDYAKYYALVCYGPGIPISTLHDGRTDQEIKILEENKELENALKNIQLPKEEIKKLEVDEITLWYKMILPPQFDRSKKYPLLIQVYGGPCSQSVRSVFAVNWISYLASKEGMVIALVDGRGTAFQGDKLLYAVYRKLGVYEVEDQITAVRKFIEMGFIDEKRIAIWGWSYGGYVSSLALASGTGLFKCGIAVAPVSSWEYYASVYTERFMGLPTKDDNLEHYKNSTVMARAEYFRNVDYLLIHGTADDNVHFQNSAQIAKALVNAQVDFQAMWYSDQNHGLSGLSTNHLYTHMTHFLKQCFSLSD


What was measured:
[1] = molecular target: T1, fibroblast activation protein α (FAPα); assay: cell-based or functional assay
[2] = molecular target: T1, fibroblast activation protein α (FAPα); assay: fluorescence polarization FAPα binding assay
Procedure: FAPα binding was measured using the fluorescence polarization assay methodology described in Yanagisawa et al (1997) J Biol Chem 272(13), 8539-8545. FAPα enzyme inhibition was measured using the assay methodology described in Poplawski et al (2013) J Med Chem 56(9), 3467-3477.

Row | Binder | FAPα Enzyme Inhibition IC50 [1] [µM] | Ki [2] [nM]
1 | ACHSDYLICPYGDFFCA (linker 2-9-16 via TBMB, all L-amino acids; also called CiHSDYLICiiPYGDFFCiii with N- and C-terminal Ala) [A-(SEQ ID NO: 1)-A] | 1.33 | 113
2 | ACTDCDTDSLIYCA (linker 2-5-13 via TBMB, all L-amino acids) [A-(SEQ ID NO: 2)-A] | > 50 | 4520
3 | ACPPTEYDCLIFFSECA (linker 2-9-16 via TBMB, all L-amino acids; also called CiPPTEYDCiiLIFFSECiii with N- and C-terminal Ala) [A-(SEQ ID NO: 3)-A] | 5.76 | 578
4 | ACDDCLISMRDACA (linker 2-5-13 via TBMB, all L-amino acids) [A-(SEQ ID NO: 4)-A] | 16.7 | 1720
